Data taken from patent publication US20210388087A1 (Chugai, published 2021).
Numbering of substitutions follows the chain as printed. Values belong to the binder of their own block, whether it stands above or below them.

Tests used:
human CD3 ed = human CD3 ed (human, UniProt P07766 23-126; P04234 22-105, limits assumed); test: SPR Biacore T200, IgG captured on protein A, 25 C;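 further: antigens diluted in ACES running buffer at pH 7.4 were flowed over antibodies held on a CM3 chip bearing amine-coupled protein A, with buffer alone serving as blank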
cyno CD137 = target: T1, cyno CD137 (cynomolgus monkey, UniProt Q07011 24-186 (human entry), limits assumed); test: SPR Biacore T200, IgG captured on protein A, 25 C;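 further: antigens diluted in ACES running buffer at pH 7.4 were flowed over antibodies held on a CM3 chip bearing amine-coupled protein A, with buffer alone serving as blank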
T1 construct: also called cynomolgus monkey CD137
T1 chain: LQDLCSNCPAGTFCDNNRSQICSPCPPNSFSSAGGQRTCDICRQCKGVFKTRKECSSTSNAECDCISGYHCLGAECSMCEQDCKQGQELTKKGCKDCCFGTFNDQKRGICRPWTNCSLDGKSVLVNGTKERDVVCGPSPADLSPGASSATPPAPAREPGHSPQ

Human CD3eg linker = target: T2, Human CD3eg linker (human); test: SPR Biacore T200, 25 C, Ab captured on anti-human Fc, antigen as analyte;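 further: Anti-Fc amine-coupled to a CM4 chip, recombinant human CD3 flowed over in 20 mM ACES buffer pH 7.4 with 150 mM NaCl and 0.05% Tween 20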
T2 construct: Single chain: CD3 epsilon and gamma subunits joined by a 29-mer linker, Flag-tag at the C-terminus; also called recombinant human CD3
T2 chain: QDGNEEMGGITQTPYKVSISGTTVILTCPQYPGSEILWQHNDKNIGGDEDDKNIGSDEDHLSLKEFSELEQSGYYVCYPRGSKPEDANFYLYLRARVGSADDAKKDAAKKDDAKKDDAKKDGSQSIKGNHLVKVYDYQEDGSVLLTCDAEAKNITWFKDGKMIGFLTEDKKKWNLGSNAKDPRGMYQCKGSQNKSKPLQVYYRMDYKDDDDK

Human CD137 ECD = target: T3, Human CD137 ECD (human); test: SPR Biacore T200, 37 C, Ab captured on anti-human Fc, antigen as analyte;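 further: recombinant human CD137 flowed over antibodies held by amine-coupled anti-human Fc on a CM4 chip, run in ACES pH 7.4 buffer with 150 mM NaCl and 0.05% Tween 20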
T3 construct: also called human CD137 extracellular domain; recombinant human CD137

human CD137-Fc [1] = target: T4, human CD137-Fc (human, biotin-labeled); test: bead ELISA on biotin-human CD137-Fc with 125 pmol/well free CD3e peptide as competitor;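 further: Streptavidin-coated magnetic beads in blocking buffer as the capture surface, well signal read as fluorescence 2 min after adding APS-5 substrate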
T4 construct: if 90 already holds the Fc, drop the second piece; also called biotin-labeled human CD137 fused to human IgG1 Fc fragment; biotin-human CD137-Fc; not shown: human IgG1 Fc fragment

human CD137-Fc [2] = target: T4, human CD137-Fc; test: bead ELISA on biotin-human CD137-Fc, 0 pmol free CD3e peptide
human CD137-Fc [3] = target: T4, human CD137-Fc; test: bead ELISA on biotin-human CD137-Fc, 125 vs 0 pmol free CD3e peptide;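 further: target captured on streptavidin-coated magnetic beads, signal read as fluorescence 2 min after adding APS-5 substrate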

Kd (human CD3 ed): 413 nM
koff (human CD3 ed): 0.0216 s⁻¹
kon (human CD3 ed): 52400 M⁻¹ s⁻¹
Kd (cyno CD137): 4170 nM
koff (cyno CD137): 0.0101 s⁻¹
kon (cyno CD137): 2430 M⁻¹ s⁻¹
B1: dBBDu167/L091 (antibody, V domains shown)
VH: QVQLVESGGGLVQPGRSLRLSCAASGFTFSNAWMHWVRQAPGKGLEWVAQIKDKGNLYAAYYAPSVKGRFTISRDDSKNSIYLQMNSLKTEDTAVYYCHYVHYASAGGGLPGFGVDAWGQGTTVTVSS
VL: DIVMTQSPLSLPVTPGEPASISCSASESLLHNNRHTYLHWYQQKPGQAPRLLIYRVSNRFNGVPDRFSGSGSGTDFTLKISRVEAEDVGVYYCGQGTQVPFTFGQGTKLEIK
notes: IgG format; constant regions not specified

Kd (Human CD3eg linker): 265 nM
koff (Human CD3eg linker): 0.0251 s⁻¹
kon (Human CD3eg linker): 94600 M⁻¹ s⁻¹
Kd (Human CD137 ECD): 49.4 nM
koff (Human CD137 ECD): 0.000606 s⁻¹
kon (Human CD137 ECD): 12300 M⁻¹ s⁻¹
B2: H1643L0581 (antibody, V domains shown)
VH: QVQLVESGGGLVQPGRSLRLSCAASGFKFSNVWFHWVRQAPGKGLEWVAQIKDYYNAYAAYYAPSVKGRFTISRDDSKNSIYLQMNSLKTEDTAVYYCHYVHYASASTLLPAEGVDAWGQGTTVTVSS
VL: DIVMTQSPLSLPVTPGEPASISCQPSQEVVHMNRNTYLHWYQQKPGQAPRLLIYKVSNRFPGVPDRFSGSGSGTDFTLKISRVEAEDVGVYYCAQGTSHPFTFGQGTKLEIK
notes: Dual-Ig, IgG; also called H1643L581; dBBDu183H1643/dBBDu072L0581

Kd (Human CD3eg linker): 21 nM
koff (Human CD3eg linker): 0.00116 s⁻¹
kon (Human CD3eg linker): 55000 M⁻¹ s⁻¹
Kd (Human CD137 ECD): 59.1 nM
koff (Human CD137 ECD): 0.000722 s⁻¹
kon (Human CD137 ECD): 12200 M⁻¹ s⁻¹
B3: H1673L0943 (antibody, V domains shown)
VH: B2 VH with K28V, Y54K, Y55W, A60D, G68E, V101I, V115I
VL: B2 VL with Q27E, R59L, S98H
notes: Dual-Ig, IgG; also called dBBDu183H1673/dBBDu072L0943

Kd (Human CD3eg linker): 593 nM
koff (Human CD3eg linker): 0.0584 s⁻¹
kon (Human CD3eg linker): 98300 M⁻¹ s⁻¹
Kd (Human CD137 ECD): 78.1 nM
koff (Human CD137 ECD): 0.00163 s⁻¹
kon (Human CD137 ECD): 20900 M⁻¹ s⁻¹
B4: H2594L0581 (antibody, V domains shown)
VH: B2 VH with A60G, A63H, S105A, T108Q
VL: B2 VL
notes: Dual-Ig, IgG; also called H2594L581; dBBDu183H2594/dBBDu072L0581

Kd (Human CD3eg linker): 13.3 nM
koff (Human CD3eg linker): 0.00106 s⁻¹
kon (Human CD3eg linker): 79600 M⁻¹ s⁻¹
Kd (Human CD137 ECD): 80.4 nM
koff (Human CD137 ECD): 0.00096 s⁻¹
kon (Human CD137 ECD): 11900 M⁻¹ s⁻¹
B5: H1673L0581 (antibody, V domains shown)
VH: B2 VH with K28V, Y54K, Y55W, A60D, G68E, V101I, V115I
VL: B2 VL
notes: Dual-Ig, IgG; also called dBBDu183H1673/dBBDu072L0581

Kd (human CD3 ed): 331 nM
koff (human CD3 ed): 0.01 s⁻¹
kon (human CD3 ed): 30300 M⁻¹ s⁻¹
Kd (cyno CD137): 5760 nM
koff (cyno CD137): 0.0286 s⁻¹
kon (cyno CD137): 4980 M⁻¹ s⁻¹
B6: dBBDu189/L112 (antibody, V domains shown)
VH: B1 VH with V48I, K54R, G55S, L57Q, A60T, S105Q, G107S, G108S, G109L, G112S
VL: B2 VL with Q24T, P25S, S26D, V29L, N35H, S57Y, H99V
notes: as for B1

ELISA signal (human CD137-Fc [1]): 2110
ELISA signal (human CD137-Fc [2]): 54400
Signal decrease (human CD137-Fc [3]): 96.1%
B7: dBBDu197 (antibody, V domains shown)
VH: B2 VH with K28T, V32A, F34M, Y54R, Y55S, L109V, E113F
VL: B1 VL with S24R, A25S, E27Q, L30V, N32S, H35N, R55K, N61S, F101Y
notes: Human IgG1; light chain GLS3000 (kappa)

Kd (Human CD3eg linker): 789 nM
koff (Human CD3eg linker): 0.0481 s⁻¹
kon (Human CD3eg linker): 61000 M⁻¹ s⁻¹
Kd (Human CD137 ECD): 32.8 nM
koff (Human CD137 ECD): 0.000468 s⁻¹
kon (Human CD137 ECD): 14300 M⁻¹ s⁻¹
B8: H1649L0943 (antibody, V domains shown)
VH: B2 VH with K28V, Y54K, A60D, G68E
VL: B2 VL with Q27E, R59L, S98H
notes: Dual-Ig, IgG; also called dBBDu183H1649/dBBDu072L0943

Kd (Human CD3eg linker): 525 nM
koff (Human CD3eg linker): 0.0535 s⁻¹
kon (Human CD3eg linker): 102000 M⁻¹ s⁻¹
Kd (Human CD137 ECD): 36.3 nM
koff (Human CD137 ECD): 0.000742 s⁻¹
kon (Human CD137 ECD): 20400 M⁻¹ s⁻¹
B9: H2591L0581 (antibody, V domains shown)
VH: B2 VH with A60G, A63H, S105A
VL: B2 VL
notes: Dual-Ig, IgG; also called H2591L581; dBBDu183H2591/dBBDu072L0581

Kd (human CD3 ed): 209 nM
koff (human CD3 ed): 0.00434 s⁻¹
kon (human CD3 ed): 20800 M⁻¹ s⁻¹
Kd (cyno CD137): 11100 nM
koff (cyno CD137): 0.00823 s⁻¹
kon (cyno CD137): 744 M⁻¹ s⁻¹
B10: dBBDu189/L116 (antibody, V domains shown)
VH: B1 VH with V48I, K54R, G55S, L57Q, A60T, S105Q, G107S, G108S, G109L, G112S
VL: B2 VL with Q24S, P25S, V29L, M32A, N35Q, T36I, S57A, S98Q, H99V
notes: as for B1

Kd (human CD3 ed): 276 nM
koff (human CD3 ed): 0.0157 s⁻¹
kon (human CD3 ed): 56900 M⁻¹ s⁻¹
Kd (cyno CD137): 3120 nM
koff (cyno CD137): 0.00457 s⁻¹
kon (cyno CD137): 1470 M⁻¹ s⁻¹
B11: dBBDu183/L063 (antibody, V domains shown)
VH: B1 VH with L57A, G107S, G108T, G109V, G112A
VL: B2 VL with Q24R, P25S, V29L, M32T, N35H, S98Q, H99V
notes: as for B1
